Results from PMC4606454.

How the values were obtained:
[1] = biological target: His-MBP-KYP (Arabidopsis) (UniProt Q8GZB6)
YFP-KYP (Arabidopsis) = YFP-KYP (Arabidopsis) (UniProt Q8GZB6); test: FRET or BRET; FRET acceptor photobleaching (FRET-AB) in nuclei of N. benthamiana epidermal cells; TrAP-CFP donor, YFP-KYP acceptor; 27-30 cells per experiment

Substance | initial velocity of KYP transmethylation of histone 3 (in vitro HMTase reconstitution with 14C-SAM; His-MBP-TrAP pre-incubated with His-GST-KYP at molar ratios 0-10); IC50 as TrAP:KYP molar ratio (TrAP:KYP molar ratio) [1] | FRET-AB (YFP-KYP (Arabidopsis))
His-GST-TGMV-TrAP (natural protein) | 2 | –
His-GST-CaLCuV-TrAP (natural protein) | 2 | –
TGMV TrAP-CFP (natural protein) | – | 3.82
CaLCuV TrAP-CFP (natural protein) | – | 2.7
